The results in this text go back to the supplement of paper PMC10724198.

In series [1] the test system is Saccharomyces cerevisiae. As to the kind of experiment: protein stability index of tFT-peptide fusion in wild type (PSI (0-1 scale)); higher = more stable (slower turnover). To be noted: genetic background: wild type. How it is done: (§1)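 MPS profiling in S. cerevisiae of two library types built from selected 12-aa C-degron peptides (IN1, IN2, LN1, LN3, VN2, R1-R5, W1-W3, Atg1 and Rpa12 C-termini): saturation mutagenesis libraries and C-terminal +1 capping libraries (13 aa). Each peptide is fused to the C-terminus of a sfGFP-mCherry timer, after a GGGS linker. Cells are FACS-sorted into 8 mCherry/sfGFP bins and sequenced. PSI runs from 0 (unstable) to 1 (stable), measured once in wild type and in the das1Δ or doa10Δ background.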

The test system of series [2] is Saccharomyces cerevisiae. As to the kind of experiment: protein stability index of tFT-peptide fusion in deletion strain of DAS1 (PSI (0-1 scale)); higher = more stable (slower turnover). How it is done:
as §1
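For protein stability index of tFT-peptide fusion in deletion strain of DAS1 in this document: PSI is a weighted mean of each variant's read distribution over the sorted stability bins, computed only for variants having over 10 reads in total.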
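For protein stability index of tFT-peptide fusion in wild type in this document: PSI derived as read-weighted mean over the 8 sorting bins, only variants exceeding 10 total reads kept, mCherry placed adjacent to the peptide and sfGFP distal.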

On to FSMRYTFRYWVN, for which the protein stability index with Saccharomyces cerevisiae [1] is 0.0639; in the series with Saccharomyces cerevisiae [2], 0.648.

In the case of FSRRWTFRYWVN, the protein stability index in the series with Saccharomyces cerevisiae [1] came out at 0.0509; in the series with Saccharomyces cerevisiae [2] it was 0.636.

Turning to GDKRNHLIKLLN, the protein stability index with Saccharomyces cerevisiae [1] is 0.158; with Saccharomyces cerevisiae [2], 0.613.

As for GSMRWTFRYWVN, the protein stability index in the series on Saccharomyces cerevisiae [1] turned out to be 0.0781; in the series on Saccharomyces cerevisiae [2], 0.677.

For the sequence HLIQPLPVQFLN, the protein stability index amounted to 0.13 in the series with Saccharomyces cerevisiae [1] and 0.713 in the series with Saccharomyces cerevisiae [2].

Regarding IDKRNHLIKLLN, the values for the protein stability index in the series on Saccharomyces cerevisiae [1] and in the series with Saccharomyces cerevisiae [2] were 0.143 and 0.584, respectively.

Take KKHCKGQKQKIN: the values for the protein stability index with Saccharomyces cerevisiae [1] and in the series on Saccharomyces cerevisiae [2] were 0.13 and 0.637, respectively.

Turning to KKHEKGQKQKIN, the protein stability index was 0.0983 in the series on Saccharomyces cerevisiae [1] and 0.603 with Saccharomyces cerevisiae [2].

KKHKIGQKQKIN: the protein stability index in the series with Saccharomyces cerevisiae [1] amounted to 0.142; in the series on Saccharomyces cerevisiae [2] it was 0.563.

As for KKHKKDQKQKIN, the protein stability index in the series on Saccharomyces cerevisiae [1] came to 0.0671; in the series on Saccharomyces cerevisiae [2], 0.606.

Take KKHKKGIKQKIN: the figures for the protein stability index in the series on Saccharomyces cerevisiae [1] and in the series on Saccharomyces cerevisiae [2] were 0.0645 and 0.588, respectively.

Turning to KKHKKGMKQKIN, the values for the protein stability index in the series on Saccharomyces cerevisiae [1] and with Saccharomyces cerevisiae [2] were 0.0523 and 0.659, respectively.

As to KKHKKGNKQKIN, the protein stability index with Saccharomyces cerevisiae [1] is 0.0792; in the series with Saccharomyces cerevisiae [2], 0.601.

Take KKHKKGQCQKIN: the protein stability index in the series on Saccharomyces cerevisiae [1] is 0.16; in the series with Saccharomyces cerevisiae [2] it was 0.801.

Consider KKHKKGQHQKIN, for which the protein stability index was found to be 0.0824 in the series on Saccharomyces cerevisiae [1] and 0.579 in the series with Saccharomyces cerevisiae [2].

In the case of KKHKKGQIQKIN, the protein stability index stood at 0.109 in the series with Saccharomyces cerevisiae [1] and 0.569 with Saccharomyces cerevisiae [2].

In the case of KKHKKGQKLKIN, the results for the protein stability index in the series on Saccharomyces cerevisiae [1] and with Saccharomyces cerevisiae [2] were 0.114 and 0.562, respectively.

Take KKHKKGQKQFIN: the figures for the protein stability index in the series with Saccharomyces cerevisiae [1] and in the series with Saccharomyces cerevisiae [2] were 0.209 and 0.558, respectively.

Consider KKHKKGQKQHIN, for which the protein stability index amounted to 0.435 in the series on Saccharomyces cerevisiae [1] and 0.648 with Saccharomyces cerevisiae [2].

In the case of KKHKKGQKQKINA, the protein stability index in the series with Saccharomyces cerevisiae [1] came to 0.259; with Saccharomyces cerevisiae [2], 0.655.

Take KKHKKGQKQKIQ: the protein stability index in the series with Saccharomyces cerevisiae [1] worked out at 0.37; in the series with Saccharomyces cerevisiae [2], 0.594.

Take KKHKKGQKQKSN: the figures for the protein stability index in the series with Saccharomyces cerevisiae [1] and with Saccharomyces cerevisiae [2] were 0.553 and 0.615, respectively.

As to KKHKKGQKQWIN, the protein stability index in the series with Saccharomyces cerevisiae [1] is 0.553; in the series on Saccharomyces cerevisiae [2] it was 0.657.

Turning to KKHKKGQKYKIN, the protein stability index in the series on Saccharomyces cerevisiae [1] is 0.199; in the series with Saccharomyces cerevisiae [2], 0.634.

Consider KKHKKGRKQKIN, for which the figures for the protein stability index with Saccharomyces cerevisiae [1] and with Saccharomyces cerevisiae [2] were 0.0973 and 0.586, respectively.

As to KKHKKGVKQKIN, the values for the protein stability index in the series with Saccharomyces cerevisiae [1] and in the series on Saccharomyces cerevisiae [2] were 0.128 and 0.743, respectively.

With KKLKKGQKQKIN, the protein stability index with Saccharomyces cerevisiae [1] is 0.0797; in the series on Saccharomyces cerevisiae [2], 0.594.

As for KKNKKGQKQKIN, the protein stability index in the series on Saccharomyces cerevisiae [1] worked out at 0.141; with Saccharomyces cerevisiae [2] it was 0.598.

With KVHKKGQKQKIN, the protein stability index with Saccharomyces cerevisiae [1] turned out to be 0.0686; in the series on Saccharomyces cerevisiae [2], 0.64.

For the sequence KWHKKGQKQKIN, the protein stability index in the series with Saccharomyces cerevisiae [1] was 0.108; in the series on Saccharomyces cerevisiae [2], 0.562.

On to LGILRQKMNHQN, for which the protein stability index was determined as 0.141 in the series on Saccharomyces cerevisiae [1] and 0.685 with Saccharomyces cerevisiae [2].

For LKILKQKMNHQN, the protein stability index with Saccharomyces cerevisiae [1] worked out at 0.222; in the series on Saccharomyces cerevisiae [2] it was 0.68.

In the case of LKILRFKMNHQN, the protein stability index in the series on Saccharomyces cerevisiae [1] was found to be 0.201; with Saccharomyces cerevisiae [2], 0.667.

Take LKILRPKMNHQN: the results for the protein stability index in the series on Saccharomyces cerevisiae [1] and in the series on Saccharomyces cerevisiae [2] were 0.541 and 0.669, respectively.

As for LKILRQKMAHQN, the results for the protein stability index in the series with Saccharomyces cerevisiae [1] and with Saccharomyces cerevisiae [2] were 0.178 and 0.673, respectively.

As to LKILRQKMEHQN, the protein stability index with Saccharomyces cerevisiae [1] turned out to be 0.404; in the series with Saccharomyces cerevisiae [2] it was 0.671.

As to LKILRQKMNHDN, the protein stability index in the series on Saccharomyces cerevisiae [1] was determined as 0.39; in the series on Saccharomyces cerevisiae [2], 0.671.
